In patent US20140213531A1 (POLYPHOR, published 2014):
Bridges are numbered along the chain shown (N, C = ends). [ ]: non-standard residue; d: D form. Gly(octyl) = CCCCCCCC[C@H](N)C(=O)O; Pro(4NHCOPhe) = not defined here; Cha = N[C@@H](CC1CCCCC1)C(=O)O

T1: Chymase, from human skin (human, UniProt P23946 22-247)
T1 construct: purified natural enzyme, bought
T1 sequence (looked up): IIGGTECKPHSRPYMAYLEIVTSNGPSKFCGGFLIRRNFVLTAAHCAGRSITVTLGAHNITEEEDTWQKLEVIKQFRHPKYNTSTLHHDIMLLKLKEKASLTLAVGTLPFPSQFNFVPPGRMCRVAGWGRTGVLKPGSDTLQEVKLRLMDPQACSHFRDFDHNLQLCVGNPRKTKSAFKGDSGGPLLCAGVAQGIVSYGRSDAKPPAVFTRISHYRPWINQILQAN

T2: CathepsinG, from human neutrophils (human, UniProt P08311 21-244)
T2 construct: purified natural enzyme, bought
T2 sequence (looked up): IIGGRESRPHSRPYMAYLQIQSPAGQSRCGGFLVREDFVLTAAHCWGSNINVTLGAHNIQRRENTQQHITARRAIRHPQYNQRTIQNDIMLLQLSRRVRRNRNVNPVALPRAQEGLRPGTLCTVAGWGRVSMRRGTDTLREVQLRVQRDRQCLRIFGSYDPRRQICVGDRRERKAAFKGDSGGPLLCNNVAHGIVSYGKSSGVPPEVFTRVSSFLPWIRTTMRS


Tests used:
Assay in all cases: enzyme inhibition, pNA substrate
[1] = biological target: T3, Tryptase, from human lung (human, UniProt Q15661 31-275, limits assumed)
T3 construct: purified natural enzyme, bought
T3 sequence (Q15661 31-275 limits assumed): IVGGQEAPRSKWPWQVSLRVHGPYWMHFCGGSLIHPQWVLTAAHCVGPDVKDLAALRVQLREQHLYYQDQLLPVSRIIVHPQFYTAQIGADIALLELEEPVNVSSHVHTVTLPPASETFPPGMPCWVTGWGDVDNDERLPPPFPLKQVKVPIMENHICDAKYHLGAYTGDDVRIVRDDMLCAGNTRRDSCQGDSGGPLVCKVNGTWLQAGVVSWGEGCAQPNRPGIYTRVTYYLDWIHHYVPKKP

[2] = biological target: T1, Chymase, from human skin
[3] = biological target: T2, CathepsinG, from human neutrophils
[4] = biological target: T4, Trypsin, Iodination grade, from human pancreas (human, UniProt P07477 24-247)
T4 construct: purified natural enzyme, bought

[5] = biological target: T5, Coagulation Factor Xa, from uman plasma (human, UniProt P00742 41-179; P00742 235-488, limits assumed)
T5 construct: purified natural enzyme, bought; also called FXa
T5 sequence (P00742 41-179 limits assumed, chain 1 of 2): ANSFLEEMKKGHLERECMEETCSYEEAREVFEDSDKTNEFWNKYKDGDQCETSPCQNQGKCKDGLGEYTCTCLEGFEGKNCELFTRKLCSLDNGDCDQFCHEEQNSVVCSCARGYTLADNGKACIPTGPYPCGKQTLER
T5 sequence (P00742 235-488 limits assumed, chain 2 of 2): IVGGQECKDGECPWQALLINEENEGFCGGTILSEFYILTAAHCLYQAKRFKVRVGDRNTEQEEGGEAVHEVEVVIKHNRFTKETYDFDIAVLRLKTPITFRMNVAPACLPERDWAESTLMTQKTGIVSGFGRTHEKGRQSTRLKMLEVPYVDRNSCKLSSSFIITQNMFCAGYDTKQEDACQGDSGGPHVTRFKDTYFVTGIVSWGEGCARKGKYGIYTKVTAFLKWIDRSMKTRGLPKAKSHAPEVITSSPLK

[6] = biological target: Thrombin, from Human Plasma, high activity (human, UniProt P00734 328-622)
[7] = biological target: T6, Chymotrypsin, from human pancreas (human, UniProt P17538 19-263)
T6 construct: purified natural enzyme, bought
T6 sequence (P17538 19-263): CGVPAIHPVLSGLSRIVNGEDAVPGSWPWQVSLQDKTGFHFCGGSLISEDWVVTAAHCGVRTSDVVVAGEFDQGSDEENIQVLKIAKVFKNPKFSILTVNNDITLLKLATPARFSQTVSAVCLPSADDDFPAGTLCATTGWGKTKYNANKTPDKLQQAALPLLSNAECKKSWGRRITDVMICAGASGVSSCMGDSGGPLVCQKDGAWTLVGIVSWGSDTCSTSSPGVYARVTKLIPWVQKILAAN

[8] = biological target: T7, Urokinase from human urine (human, UniProt P00749 21-431, limits assumed)
T7 construct: purified natural enzyme, bought

Binder	% inhibition at 100 µM [1]	% inhibition at 100 µM [2]	% inhibition at 100 µM [3]	% inhibition at 100 µM [4]	% inhibition at 100 µM [5]	% inhibition at 100 µM [6]	% inhibition at 100 µM [7]	% inhibition at 100 µM [8]
XCTASIPPQCQ (HELM PEPTIDE1{[O=C([C@H](CCc1ccccc1)N[*:1])[*:2]].C.T.A.S.I.P.P.Q.C.Q.[dP].P}$PEPTIDE1,PEPTIDE1,2:R3-10:R3|PEPTIDE1,PEPTIDE1,1:R1-13:R2$$$V2.0; SMILES CC[C@H](C)[C@@H]1NC(=O)[C@H](CO)NC(=O)[C@H](C)NC(=O)[C@H]([C@@H](C)O)NC(=O)[C@@H]2CSSC[C@H](NC(=O)[C@H](CCC(N)=O)NC(=O)[C@@H]3CCCN3C(=O)[C@@H]3CCCN3C1=O)C(=O)N[C@@H](CCC(N)=O)C(=O)N1CCC[C@@H]1C(=O)N1CCC[C@H]1C(=O)N[C@@H](CCc1ccccc1)C(=O)N2, also called Ex. 143) [Example 143]	18%	0%	28%	12%	0%	12%	91%	–
XETASIPPQKY (HELM PEPTIDE1{[Nle].E.T.A.S.I.P.P.Q.K.Y.[dP].P}$PEPTIDE1,PEPTIDE1,1:R1-13:R2$$$V2.0; SMILES CCCC[C@@H]1NC(=O)[C@@H]2CCCN2C(=O)[C@H]2CCCN2C(=O)[C@H](Cc2ccc(O)cc2)NC(=O)[C@H](CCCCN)NC(=O)[C@H](CCC(N)=O)NC(=O)[C@@H]2CCCN2C(=O)[C@@H]2CCCN2C(=O)[C@H]([C@@H](C)CC)NC(=O)[C@H](CO)NC(=O)[C@H](C)NC(=O)[C@H]([C@@H](C)O)NC(=O)[C@H](CCC(=O)O)NC1=O) [Example 104]	0%	0%	53.5%	0%	–	–	–	0%
XQTASIPPQTY (HELM PEPTIDE1{[Nle].Q.T.A.S.I.P.P.Q.T.Y.[dP].P}$PEPTIDE1,PEPTIDE1,1:R1-13:R2$$$V2.0; SMILES CCCC[C@@H]1NC(=O)[C@@H]2CCCN2C(=O)[C@H]2CCCN2C(=O)[C@H](Cc2ccc(O)cc2)NC(=O)[C@H]([C@@H](C)O)NC(=O)[C@H](CCC(N)=O)NC(=O)[C@@H]2CCCN2C(=O)[C@@H]2CCCN2C(=O)[C@H]([C@@H](C)CC)NC(=O)[C@H](CO)NC(=O)[C@H](C)NC(=O)[C@H]([C@@H](C)O)NC(=O)[C@H](CCC(N)=O)NC1=O, also called Ex. 109) [Example 109]	–	–	54.1%	0%	–	0%	13.8%	–
XCTASIPPQCY (HELM PEPTIDE1{[Nle].C.T.A.S.I.P.P.Q.C.Y.[dK].E}$PEPTIDE1,PEPTIDE1,2:R3-10:R3|PEPTIDE1,PEPTIDE1,1:R1-13:R2$$$V2.0; SMILES CCCC[C@@H]1NC(=O)[C@H](CCC(=O)O)NC(=O)[C@@H](CCCCN)NC(=O)[C@H](Cc2ccc(O)cc2)NC(=O)[C@@H]2CSSC[C@H](NC1=O)C(=O)N[C@@H]([C@@H](C)O)C(=O)N[C@@H](C)C(=O)N[C@@H](CO)C(=O)N[C@@H]([C@@H](C)CC)C(=O)N1CCC[C@H]1C(=O)N1CCC[C@H]1C(=O)N[C@@H](CCC(N)=O)C(=O)N2) [Example 127]	0%	–	64%	0%	13.3%	–	47.2%	–
XCTASXPPQCQ (HELM PEPTIDE1{[O=C([C@H](CCc1ccccc1)N[*:1])[*:2]].C.T.A.S.[Cha].P.P.Q.C.Q.[dP].P}$PEPTIDE1,PEPTIDE1,2:R3-10:R3|PEPTIDE1,PEPTIDE1,1:R1-13:R2$$$V2.0; SMILES C[C@@H]1NC(=O)[C@H]([C@@H](C)O)NC(=O)[C@@H]2CSSC[C@H](NC(=O)[C@H](CCC(N)=O)NC(=O)[C@@H]3CCCN3C(=O)[C@@H]3CCCN3C(=O)[C@H](CC3CCCCC3)NC(=O)[C@H](CO)NC1=O)C(=O)N[C@@H](CCC(N)=O)C(=O)N1CCC[C@@H]1C(=O)N1CCC[C@H]1C(=O)N[C@@H](CCc1ccccc1)C(=O)N2) [Example 158]	13%	0%	55%	–	–	–	93%	10%
XCTASXPPQCQ (HELM PEPTIDE1{[CCCCCCCC[C@H](N[*:1])C(=O)[*:2]].C.T.A.S.[CCCCCCCC[C@H](N[*:1])C(=O)[*:2]].P.P.Q.C.Q.[dP].P}$PEPTIDE1,PEPTIDE1,2:R3-10:R3|PEPTIDE1,PEPTIDE1,1:R1-13:R2$$$V2.0; SMILES CCCCCCCC[C@@H]1NC(=O)[C@@H]2CCCN2C(=O)[C@H]2CCCN2C(=O)[C@H](CCC(N)=O)NC(=O)[C@@H]2CSSC[C@H](NC1=O)C(=O)N[C@@H]([C@@H](C)O)C(=O)N[C@@H](C)C(=O)N[C@@H](CO)C(=O)N[C@@H](CCCCCCCC)C(=O)N1CCC[C@H]1C(=O)N1CCC[C@H]1C(=O)N[C@@H](CCC(N)=O)C(=O)N2, also called Ex. 148) [Example 148]	30%	–	52%	–	–	32%	91%	12%
XCTASXPPQCY (HELM PEPTIDE1{[Nle].C.T.A.S.[Cha].P.P.Q.C.Y.[dP].P}$PEPTIDE1,PEPTIDE1,2:R3-10:R3|PEPTIDE1,PEPTIDE1,1:R1-13:R2$$$V2.0; SMILES CCCC[C@@H]1NC(=O)[C@@H]2CCCN2C(=O)[C@H]2CCCN2C(=O)[C@H](Cc2ccc(O)cc2)NC(=O)[C@@H]2CSSC[C@H](NC1=O)C(=O)N[C@@H]([C@@H](C)O)C(=O)N[C@@H](C)C(=O)N[C@@H](CO)C(=O)N[C@@H](CC1CCCCC1)C(=O)N1CCC[C@H]1C(=O)N1CCC[C@H]1C(=O)N[C@@H](CCC(N)=O)C(=O)N2, also called Ex. 141) [Example 141]	44.5%	0%	63.4%	0%	15.3%	0%	72.9%	–
cyclo([Gly(octyl)]CTAS[Cha]P[Pro(4NHCOPhe)]QCQ[dP]P) (disulfide 2-10; not fully specified; reading uncertain, also called Ex. 160) [Example 160]	30%	–	55%	–	–	23%	94%	14%
XCTASIPPQCY (HELM PEPTIDE1{[O=C([C@H](CCc1ccccc1)N[*:1])[*:2]].C.T.A.S.I.P.P.Q.C.Y.[dK].E}$PEPTIDE1,PEPTIDE1,2:R3-10:R3|PEPTIDE1,PEPTIDE1,1:R1-13:R2$$$V2.0; SMILES CC[C@H](C)[C@@H]1NC(=O)[C@H](CO)NC(=O)[C@H](C)NC(=O)[C@H]([C@@H](C)O)NC(=O)[C@@H]2CSSC[C@H](NC(=O)[C@H](CCC(N)=O)NC(=O)[C@@H]3CCCN3C(=O)[C@@H]3CCCN3C1=O)C(=O)N[C@@H](Cc1ccc(O)cc1)C(=O)N[C@H](CCCCN)C(=O)N[C@@H](CCC(=O)O)C(=O)N[C@@H](CCc1ccccc1)C(=O)N2) [Example 174]	10%	0%	56%	–	–	11%	85%	–
XCTASIPPQCY (HELM PEPTIDE1{[CCCCCCCC[C@H](N[*:1])C(=O)[*:2]].C.T.A.S.I.P.P.Q.C.Y.[dP].Q}$PEPTIDE1,PEPTIDE1,2:R3-10:R3|PEPTIDE1,PEPTIDE1,1:R1-13:R2$$$V2.0; SMILES CCCCCCCC[C@@H]1NC(=O)[C@H](CCC(N)=O)NC(=O)[C@H]2CCCN2C(=O)[C@H](Cc2ccc(O)cc2)NC(=O)[C@@H]2CSSC[C@H](NC1=O)C(=O)N[C@@H]([C@@H](C)O)C(=O)N[C@@H](C)C(=O)N[C@@H](CO)C(=O)N[C@@H]([C@@H](C)CC)C(=O)N1CCC[C@H]1C(=O)N1CCC[C@H]1C(=O)N[C@@H](CCC(N)=O)C(=O)N2, also called Ex. 177) [Example 177]	15%	–	54%	–	–	17%	86%	12%
